We go through 83 variants from the RNAGym collection of RNA variant scans (doi:10.1073/pnas.2313332121).

Variants at the floor of the assay were thinned out. Where only a bound is given, the exact number is not on record here.

To fix the notation:
B1: TPR 5TU (parent)
chain: GGAUCUUCUCGAUCUAACAAAAAAGACAAAUCUGCCACAAAGCUUGAGAGCAUCUUCGGAUGCAGAGGCGGCAGCCUUCGGUGGCGCGAUAGCGCCAACGUUCUCAACUAUGACACGCAAAACGCGUGCUCCGUUGAAUGGAGUUUAUCAUG

Variants of B1 are the subject of this data set. The data set can be described thus: polymerase ribozyme fitness, log enrichment relative to wild type (log ratio); higher = more active; in vitro selection for triplet polymerase activity. The method, boiled down:
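One round of in vitro selection, in triplicate, was applied to PCR-built, transcribed mutant libraries of each subunit of a heterodimeric triplet polymerase ribozyme. The steps were annealing with a biotinylated primer, partner subunit and triplets, incubation frozen at −7 °C, gel excision of extended constructs, streptavidin-bead capture and RT-PCR. Fitness is the logarithm, base 2, of genotype enrichment over wild-type enrichment from inverse-variance-weighted replicate averages of Illumina-sequenced inputs and outputs, keeping genotypes with ≥10 input reads and ≥1 read per output.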
With A26C C27G A52C G80U A89G, the “polymerase ribozyme fitness (log ratio)” value was at most -4.2. The value for A24G C87U was -2.3; that for A23C G34U was -3.82; that for A24U C79A was -4.12. Then A26C C32U G48C G143A, with at most -4.2; and A23G C54G U56A A138U G140U U146C, with at most -4.2; and A24C C87A A106G U135C, with at most -4.2.

With A23G A37G C95A C118G G140A, the “polymerase ribozyme fitness (log ratio)” value was at most -4.2. With A23C C85A G88A A120U U146G, the “polymerase ribozyme fitness (log ratio)” value was at most -4.2. Then A24C C96G C118A, with -4.19; and G25U C36U C54G, with -4.13. For the variant A24C C87U, the “polymerase ribozyme fitness (log ratio)” value is -3.57. The value for A23G G58U C87A A115U was at most -4.2; that for A24U C54A was -0.922. The value for A23C G25C C32U A52C C85A was at most -4.2; that for A24G G83C U101G C123A G141U was at most -4.2; that for A23U C54G U61A C72A G86A G141A was at most -4.2. Regarding G25U G86A, the “polymerase ribozyme fitness (log ratio)” value was -3.14.

With A24U C27A G42C C75A U82G C96U C108A A138C, the “polymerase ribozyme fitness (log ratio)” value is at most -4.2. The value for A26U C51U A89G C105G U134G U144A was at most -4.2; that for A23G G58A C87U A121C was -3.82. The value for A23U C76A was -3.84; that for G25U C87U was -2.63. For the variant A26G G48C A49G A73G C76U G83C G92U U148C, the “polymerase ribozyme fitness (log ratio)” value was at most -4.2. Then A24C A47C C57U A121U, with at most -4.2; and A23C G50U C76U C79A C85U C99G, with at most -4.2. Then A24U C96A, with 0.632; and G25C G83A A107C U134G, with at most -4.2; and A26C A41U, with -3.05. The value for G25A C85A C95U was -2.49; that for A24U U78C C87A was at most -4.2; that for A24U A47U C96U C116A G133A C149G was at most -4.2. G25A A29C A40U G68C C93A A97U: the “polymerase ribozyme fitness (log ratio)” value is at most -4.2.

With A24U A28C C76A U82A C99U C118U G141C, the “polymerase ribozyme fitness (log ratio)” value is at most -4.2. The value for A24G A40U C43U A49C G84A G100U G124A C125G U145G was at most -4.2; that for A24U A30C C38U U45A G92U was at most -4.2.

Consider A23G A41C U44C A49C G58C A64C C85U A138G, for which the “polymerase ribozyme fitness (log ratio)” value is at most -4.2.

Consider A24U A52C U56A A73G C93U, for which the “polymerase ribozyme fitness (log ratio)” value is -3.52. Regarding A26C C85G C118A, the “polymerase ribozyme fitness (log ratio)” value was -3.99.

In the case of A24U G65U A91C U104A A110G G140A U144G, the “polymerase ribozyme fitness (log ratio)” value is at most -4.2. The value for G25A A39G G68C C95U was at most -4.2; that for A26C A39G G42U A60G U78C C93G G117A was at most -4.2; that for G25U U53A A91C G92A C105G G141C was at most -4.2. On to A23U A39G A91C, for which the “polymerase ribozyme fitness (log ratio)” value is at most -4.2. Then A26C A30G U45A A60G A97U U104G G143U, with at most -4.2; and A24C G42C G50U A91U C103A U134A, with at most -4.2.

On to A26C U61A, for which the “polymerase ribozyme fitness (log ratio)” value is -3.34. The value for G25A U31A C51U G81C G84U G152U was at most -4.2; that for G25U A37G C85A U148C was at most -4.2; that for A23U C54U C57U G68A C87A A91G G133U was at most -4.2. The value for A23G C32G A52U C85A U102G U127G was at most -4.2; that for A26G C93A G124A was -4.18.

In the case of A24C C38A U77A G84C A89U, the “polymerase ribozyme fitness (log ratio)” value is at most -4.2. Then A24U U31C C38U U82A G84A, with 0.365; and A23U A30C C35A A106C, with at most -4.2; and G25A C87G A98U, with at most -4.2. For A24U U53A, the “polymerase ribozyme fitness (log ratio)” value is -0.894. Consider A24G G70C C79U C95A C96G, for which the “polymerase ribozyme fitness (log ratio)” value was at most -4.2. Then A24G A40U U61C A137C A142C, with at most -4.2. Consider A24C C125U, for which the “polymerase ribozyme fitness (log ratio)” value is at most -4.2. Regarding A23U U139A, the “polymerase ribozyme fitness (log ratio)” value was at most -4.2. With G25C A28C C32A A110G G126C, the “polymerase ribozyme fitness (log ratio)” value is at most -4.2. The value for G25U G92C A115G was -3.33; that for A24G G25U C75G G80A C85G U130A A142C was at most -4.2; that for A23C C35A C87A was -4.05. Then A23G C96U, with -2.56; and A24G C27G A30U G48C G92U, with at most -4.2; and G25C U44A A66G G71A A91U C131U C132G, with at most -4.2.

Regarding A24U C35U C96U C105U A147G, the “polymerase ribozyme fitness (log ratio)” value was -3.09. For the variant A24G C35U, the “polymerase ribozyme fitness (log ratio)” value is -3.09. Then A24G C27A G84U G86A C131A, with at most -4.2; and G25C G46A G50U G83A C95A A97G U127G, with at most -4.2; and A24G U56A A121C G133C, with at most -4.2. In the case of A26G G46U A52G C116U G140C G143C, the “polymerase ribozyme fitness (log ratio)” value was at most -4.2. For A24U A39U A89C, the “polymerase ribozyme fitness (log ratio)” value was -4.16. Regarding A23U C63A C114G, the “polymerase ribozyme fitness (log ratio)” value was at most -4.2. Then A23U C35A A60G G84C G86A C96A G140U, with at most -4.2; and A26U C51A A60U G88U C95U C118U G141C, with at most -4.2; and A24U C96G G143U A147U, with -3.7. Then A26C A29U C54G A91G A97U, with at most -4.2; and A24U G50U G143C, with -2.91.

On to A26U A107G G141A, for which the “polymerase ribozyme fitness (log ratio)” value was at most -4.2. Turning to A23C C54G A64G C125A U148C C149A A150U, the “polymerase ribozyme fitness (log ratio)” value was at most -4.2.
